Assays:
c-Src SH2 = assay: SH2 binding enrichment of the phosphorylated peptide, bacterial display (enrichment ratio); higher = better substrate or ligand; peptides without Tyr show the background
SHP2-C SH2 = assay: as above
Grb2 SH2 = Grb2 SH2 (UniProt P62993); assay: as above
Hck = Hck (UniProt P08631); assay: phosphorylation enrichment, bacterial display (enrichment ratio); higher = better substrate or ligand; peptides without Tyr show the background
c-Abl (mouse) = assay: as above
FGFR1 = FGFR1 (UniProt P11362); assay: as above
c-Src = assay: as above
Fes = Fes (UniProt P07332); assay: as above
FGFR3 = FGFR3 (UniProt P22607); assay: as above
Jak2 = Jak2 (UniProt O60674); assay: as above
Fyn = Fyn (UniProt P06241); assay: as above
MERTK = MERTK (UniProt Q12866); assay: as above
AncSZ = assay: as above
EPHB2 = EPHB2 (UniProt P29323); assay: as above
Fer (mouse) = assay: as above
EPHB1 = EPHB1 (UniProt P54762); assay: as above
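Throughout, for SH2 binding enrichment of the phosphorylated peptide, bacterial display: peptide library displayed on the E. coli surface as eCPX fusions, selected cells deep-sequenced, score is each peptide's frequency after selection divided by its frequency in the input.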
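Throughout, for phosphorylation enrichment, bacterial display: 11-residue human phosphosite peptides and single-mutation variants displayed on the E. coli surface, counted by deep sequencing, each peptide's frequency after selection divided by its frequency in the unselected input library; frequency after pTyr selection over input frequency; kinase dosed for 20-30% of maximal phosphorylation in three min.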

Sequence of EPHB2 (P29323 whole entry, looked up): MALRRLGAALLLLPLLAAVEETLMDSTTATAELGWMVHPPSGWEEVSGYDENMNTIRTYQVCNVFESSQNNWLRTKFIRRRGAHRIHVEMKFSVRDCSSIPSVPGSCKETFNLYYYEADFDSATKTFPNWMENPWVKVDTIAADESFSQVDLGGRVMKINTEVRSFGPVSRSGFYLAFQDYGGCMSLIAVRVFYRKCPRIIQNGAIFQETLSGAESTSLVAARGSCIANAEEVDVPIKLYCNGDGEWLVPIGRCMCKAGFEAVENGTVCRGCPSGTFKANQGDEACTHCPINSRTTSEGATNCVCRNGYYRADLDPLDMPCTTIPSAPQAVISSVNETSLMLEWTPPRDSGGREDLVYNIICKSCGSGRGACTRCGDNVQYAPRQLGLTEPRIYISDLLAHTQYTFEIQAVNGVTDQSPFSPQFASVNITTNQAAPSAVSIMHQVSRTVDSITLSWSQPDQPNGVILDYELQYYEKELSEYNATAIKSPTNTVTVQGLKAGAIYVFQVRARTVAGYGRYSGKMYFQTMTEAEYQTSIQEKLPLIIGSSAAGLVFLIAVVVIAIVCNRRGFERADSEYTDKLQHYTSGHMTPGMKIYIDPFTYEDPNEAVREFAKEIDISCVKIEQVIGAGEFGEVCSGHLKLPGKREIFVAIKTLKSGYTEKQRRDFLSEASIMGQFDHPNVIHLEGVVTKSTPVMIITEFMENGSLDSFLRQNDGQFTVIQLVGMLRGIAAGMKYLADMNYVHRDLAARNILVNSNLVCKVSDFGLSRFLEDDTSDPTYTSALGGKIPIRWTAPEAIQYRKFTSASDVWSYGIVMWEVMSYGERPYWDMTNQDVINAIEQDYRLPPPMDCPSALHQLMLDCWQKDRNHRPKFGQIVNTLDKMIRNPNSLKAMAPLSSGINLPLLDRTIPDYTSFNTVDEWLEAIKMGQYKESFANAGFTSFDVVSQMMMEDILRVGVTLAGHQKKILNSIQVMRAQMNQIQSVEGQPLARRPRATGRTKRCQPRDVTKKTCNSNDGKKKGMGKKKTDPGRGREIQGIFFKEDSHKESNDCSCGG
Sequence of Grb2 SH2 (P62993 whole entry, looked up): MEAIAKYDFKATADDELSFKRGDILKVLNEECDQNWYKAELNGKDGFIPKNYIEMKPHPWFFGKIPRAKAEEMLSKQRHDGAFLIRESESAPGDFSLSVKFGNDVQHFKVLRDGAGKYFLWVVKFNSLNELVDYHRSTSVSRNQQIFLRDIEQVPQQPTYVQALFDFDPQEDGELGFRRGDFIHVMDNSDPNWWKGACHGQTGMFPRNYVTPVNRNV
Sequence of EPHB1 (P54762 whole entry, looked up, the tested form may be a part): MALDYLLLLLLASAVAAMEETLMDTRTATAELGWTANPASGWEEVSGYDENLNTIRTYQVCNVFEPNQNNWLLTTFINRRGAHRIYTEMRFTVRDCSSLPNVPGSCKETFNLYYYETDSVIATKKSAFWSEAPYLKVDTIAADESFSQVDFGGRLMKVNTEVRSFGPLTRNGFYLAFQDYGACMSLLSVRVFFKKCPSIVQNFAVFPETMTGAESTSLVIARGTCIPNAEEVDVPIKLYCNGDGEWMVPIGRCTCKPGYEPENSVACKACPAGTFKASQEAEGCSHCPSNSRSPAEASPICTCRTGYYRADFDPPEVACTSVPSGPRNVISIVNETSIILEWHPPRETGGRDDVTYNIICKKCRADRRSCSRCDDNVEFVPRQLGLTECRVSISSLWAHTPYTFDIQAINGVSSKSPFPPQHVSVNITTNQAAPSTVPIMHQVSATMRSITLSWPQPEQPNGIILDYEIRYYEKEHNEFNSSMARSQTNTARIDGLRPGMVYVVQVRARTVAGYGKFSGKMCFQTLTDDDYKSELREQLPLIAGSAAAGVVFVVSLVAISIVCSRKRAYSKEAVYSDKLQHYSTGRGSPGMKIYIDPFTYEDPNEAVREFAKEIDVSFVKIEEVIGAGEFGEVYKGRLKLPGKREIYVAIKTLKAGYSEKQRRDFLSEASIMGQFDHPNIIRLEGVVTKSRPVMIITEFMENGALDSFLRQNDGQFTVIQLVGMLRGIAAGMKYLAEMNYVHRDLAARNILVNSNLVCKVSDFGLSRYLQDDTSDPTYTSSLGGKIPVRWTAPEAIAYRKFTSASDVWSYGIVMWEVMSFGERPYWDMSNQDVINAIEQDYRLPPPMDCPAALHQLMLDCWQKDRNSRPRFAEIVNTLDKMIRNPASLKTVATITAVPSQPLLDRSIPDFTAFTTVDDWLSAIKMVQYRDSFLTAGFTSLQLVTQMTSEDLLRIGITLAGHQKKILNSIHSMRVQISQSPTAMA
Sequence of Hck (P08631 whole entry, looked up): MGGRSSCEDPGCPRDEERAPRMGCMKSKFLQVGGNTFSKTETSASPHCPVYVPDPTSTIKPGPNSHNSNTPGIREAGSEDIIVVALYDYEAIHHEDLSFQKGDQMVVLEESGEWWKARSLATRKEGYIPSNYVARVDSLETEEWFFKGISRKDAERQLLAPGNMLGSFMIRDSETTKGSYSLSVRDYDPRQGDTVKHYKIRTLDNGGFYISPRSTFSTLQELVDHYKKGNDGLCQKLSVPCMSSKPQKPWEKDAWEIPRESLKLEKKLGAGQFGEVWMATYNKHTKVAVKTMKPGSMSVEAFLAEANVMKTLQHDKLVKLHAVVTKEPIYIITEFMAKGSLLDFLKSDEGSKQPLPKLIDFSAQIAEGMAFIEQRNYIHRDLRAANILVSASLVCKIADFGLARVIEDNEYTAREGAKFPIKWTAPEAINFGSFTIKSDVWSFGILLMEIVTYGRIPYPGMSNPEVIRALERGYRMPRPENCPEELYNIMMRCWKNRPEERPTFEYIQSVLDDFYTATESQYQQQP
Sequence of FGFR1 (P11362 whole entry, looked up): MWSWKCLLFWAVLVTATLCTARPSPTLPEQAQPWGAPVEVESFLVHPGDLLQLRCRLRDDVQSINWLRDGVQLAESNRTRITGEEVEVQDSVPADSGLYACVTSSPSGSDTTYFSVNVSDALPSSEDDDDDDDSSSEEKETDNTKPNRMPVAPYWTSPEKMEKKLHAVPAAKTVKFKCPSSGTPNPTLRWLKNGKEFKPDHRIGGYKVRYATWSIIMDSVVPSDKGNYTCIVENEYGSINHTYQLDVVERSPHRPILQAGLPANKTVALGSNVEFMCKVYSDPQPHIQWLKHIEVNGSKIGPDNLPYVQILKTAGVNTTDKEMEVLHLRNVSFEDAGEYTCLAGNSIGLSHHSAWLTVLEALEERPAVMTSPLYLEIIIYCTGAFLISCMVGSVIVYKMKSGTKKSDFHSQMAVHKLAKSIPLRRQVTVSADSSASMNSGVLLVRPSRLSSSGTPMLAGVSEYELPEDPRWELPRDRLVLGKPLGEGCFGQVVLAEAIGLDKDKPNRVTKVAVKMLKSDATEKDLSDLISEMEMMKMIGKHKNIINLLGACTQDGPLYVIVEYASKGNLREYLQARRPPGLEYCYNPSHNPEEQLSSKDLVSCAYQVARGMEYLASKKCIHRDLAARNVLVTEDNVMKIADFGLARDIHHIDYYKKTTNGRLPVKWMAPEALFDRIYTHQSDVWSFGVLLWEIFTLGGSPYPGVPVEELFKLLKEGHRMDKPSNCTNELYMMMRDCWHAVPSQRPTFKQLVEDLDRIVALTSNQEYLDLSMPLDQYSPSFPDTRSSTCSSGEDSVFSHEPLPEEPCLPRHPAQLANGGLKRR
Sequence of Fyn (P06241 whole entry, looked up): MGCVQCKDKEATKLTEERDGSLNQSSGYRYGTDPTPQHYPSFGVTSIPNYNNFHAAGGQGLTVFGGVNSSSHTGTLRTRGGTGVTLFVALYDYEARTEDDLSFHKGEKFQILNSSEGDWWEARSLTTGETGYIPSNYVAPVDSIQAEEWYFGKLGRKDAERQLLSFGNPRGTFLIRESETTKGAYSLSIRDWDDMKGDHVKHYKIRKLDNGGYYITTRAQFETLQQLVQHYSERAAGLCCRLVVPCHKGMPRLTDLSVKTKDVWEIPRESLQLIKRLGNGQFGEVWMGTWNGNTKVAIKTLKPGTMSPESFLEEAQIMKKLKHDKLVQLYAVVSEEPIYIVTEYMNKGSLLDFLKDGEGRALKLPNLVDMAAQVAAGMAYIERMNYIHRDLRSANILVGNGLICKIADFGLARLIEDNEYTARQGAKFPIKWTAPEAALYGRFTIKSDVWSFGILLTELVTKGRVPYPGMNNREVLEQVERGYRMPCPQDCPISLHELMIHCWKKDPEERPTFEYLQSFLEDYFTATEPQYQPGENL
Sequence of FGFR3 (P22607 whole entry, looked up): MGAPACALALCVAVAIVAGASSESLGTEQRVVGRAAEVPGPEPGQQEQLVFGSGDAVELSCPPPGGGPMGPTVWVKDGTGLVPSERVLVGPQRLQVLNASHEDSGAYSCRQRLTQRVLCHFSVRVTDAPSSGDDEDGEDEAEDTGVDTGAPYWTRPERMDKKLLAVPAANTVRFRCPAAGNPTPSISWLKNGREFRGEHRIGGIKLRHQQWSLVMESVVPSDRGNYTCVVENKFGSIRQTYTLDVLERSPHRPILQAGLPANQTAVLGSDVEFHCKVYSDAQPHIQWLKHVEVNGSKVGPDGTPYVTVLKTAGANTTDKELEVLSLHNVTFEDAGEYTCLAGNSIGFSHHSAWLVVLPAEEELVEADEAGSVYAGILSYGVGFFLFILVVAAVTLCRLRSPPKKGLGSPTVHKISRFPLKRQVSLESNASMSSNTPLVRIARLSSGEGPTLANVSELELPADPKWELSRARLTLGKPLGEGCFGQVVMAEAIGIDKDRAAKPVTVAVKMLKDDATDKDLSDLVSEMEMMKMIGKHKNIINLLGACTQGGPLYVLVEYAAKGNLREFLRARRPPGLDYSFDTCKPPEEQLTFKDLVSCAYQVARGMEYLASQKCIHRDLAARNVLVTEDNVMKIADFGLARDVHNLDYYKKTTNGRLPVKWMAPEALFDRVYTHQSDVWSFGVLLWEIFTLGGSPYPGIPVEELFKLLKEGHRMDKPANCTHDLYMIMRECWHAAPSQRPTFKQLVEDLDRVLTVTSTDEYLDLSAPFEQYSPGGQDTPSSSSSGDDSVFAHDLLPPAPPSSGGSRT

Row | Sequence | SH2 binding enrichment (c-Src SH2) | SH2 binding enrichment (SHP2-C SH2) | SH2 binding enrichment (Grb2 SH2) | phosphorylation enrichment (Hck) | phosphorylation enrichment (c-Abl (mouse)) | phosphorylation enrichment (FGFR1) | phosphorylation enrichment (c-Src) | phosphorylation enrichment (Fes) | phosphorylation enrichment (FGFR3) | phosphorylation enrichment (Jak2) | phosphorylation enrichment (Fyn) | phosphorylation enrichment (MERTK) | phosphorylation enrichment (AncSZ) | phosphorylation enrichment (EPHB2) | phosphorylation enrichment (Fer (mouse)) | phosphorylation enrichment (EPHB1)
1 | LQIPMYEVQWK [KIT_Y553_K550I] | 0.661 | 1.06 | 0.884 | 2.24 | 1.01 | 1.14 | 1.55 | 2.04 | 0.848 | 0.721 | 2.45 | 7.37 | 2.5 | 24.1 | 2.54 | 22.6
2 | LQLLGYRPVFS [CHST6_Y358_YF] | 0.68 | 0.626 | 0.806 | 0.697 | 0.865 | 0.535 | 0.487 | 1.42 | 0.707 | 1.15 | 0.451 | 0.502 | 1.17 | 0.793 | 0.57 | 0.598
3 | LQTFRYHGLSM [PDHA1_Y289_H292L_YF] | 0.486 | 0.448 | 0.886 | 0.578 | 0.589 | 0.835 | 0.356 | 1.21 | 1.38 | 0.732 | 1.07 | 0.747 | 1.26 | 0.822 | 1.27 | 1.05
4 | LSAPWYLNRIS [HEXA_Y421] | 0.697 | 1.19 | 1.19 | 0.46 | 0.447 | 0.429 | 0.362 | 0.797 | 0.533 | 0.699 | 0.371 | 0.331 | 0.791 | 0.511 | 0.359 | 0.562
5 | LSNPAYRLLLA [DDR1_Y513] | 0.582 | 1.01 | 1.06 | 1.14 | 0.917 | 1.17 | 1.21 | 1.15 | 1.19 | 1.99 | 0.954 | 0.568 | 1.27 | 1.1 | 0.981 | 0.945
6 | LSQQVYRVNLS [FAT4_Y480_F475L] | 0.422 | 0.67 | 0.764 | 0.521 | 0.637 | 0.428 | 0.836 | 0.751 | 0.631 | 0.647 | 0.616 | 0.792 | 0.821 | 0.622 | 0.572 | 0.532
7 | LTDLRYKVSGP | 0.407 | 0.82 | 1.04 | 0.594 | 0.684 | 0.43 | 0.255 | 1.11 | 1.13 | 0.687 | 0.537 | 0.464 | 0.644 | 0.957 | 0.588 | 0.518
8 | LTECGYSFTTT [ACTB_Y198_R196C] | 0.736 | 0.602 | 0.574 | 0.555 | 0.708 | 0.674 | 0.671 | 1.15 | 0.754 | 0.889 | 0.582 | 0.417 | 1.09 | 0.781 | 0.733 | 0.592
9 | LTSKPYAFTAW [NDUFS1_Y236_R241W] | 0.749 | 0.992 | 1.01 | 0.353 | 0.503 | 0.413 | 0.4 | 0.717 | 0.511 | 0.682 | 0.371 | 1.12 | 0.575 | 0.544 | 0.448 | 0.421
10 | LVIIKYLPEWT [PSEN1_Y240_F237I] | 1.15 | 1.28 | 1.66 | 1.21 | 1.5 | 1.38 | 0.818 | 2.86 | 2.62 | 2.79 | 1.75 | 1.03 | 3.39 | 2.39 | 0.911 | 2.33
11 | MACDRYVAICS [OR8D4_Y123] | 7.31 | 3.31 | 0.743 | 0.45 | 0.55 | 0.623 | 0.586 | 0.841 | 0.503 | 0.755 | 0.529 | 0.576 | 0.709 | 0.592 | 0.475 | 0.508
12 | MALDIYRASYY [ALK_Y1278_R1275L] | 1.19 | 0.9 | 1.15 | 1.57 | 2.99 | 0.655 | 1.76 | 0.911 | 0.713 | 0.86 | 0.974 | 0.674 | 0.874 | 0.564 | 0.434 | 0.594
13 | MANYVYKAGPS [MAML2_Y515_M514V] | 0.547 | 1.09 | 0.755 | 0.419 | 0.815 | 0.434 | 0.457 | 0.643 | 0.508 | 0.452 | 0.451 | 0.473 | 0.448 | 0.455 | 0.343 | 0.476
14 | MCDSHYLESRF [CLK1_Y56_S61F] | 0.66 | 0.854 | 0.905 | 0.522 | 0.608 | 0.509 | 0.443 | 0.867 | 0.603 | 0.793 | 0.472 | 0.504 | 0.78 | 0.568 | 0.44 | 0.447
15 | MDNQEYKDAYT [BRDT_Y331_K336T] | 0.574 | 0.655 | 0.702 | 0.673 | 0.792 | 0.667 | 0.546 | 1.33 | 0.783 | 1.11 | 0.589 | 0.586 | 1.33 | 0.796 | 0.638 | 0.598
16 | MEFAKYGSLRG [RET_Y809_V804M_YF] | 0.453 | 0.729 | 1 | 0.49 | 0.454 | 0.514 | 0.484 | 0.628 | 0.448 | 0.495 | 0.456 | 0.417 | 0.604 | 0.629 | 0.348 | 0.427
17 | MGGSLYFSFPD [HIKESHI_Y55_V54L_YF] | 0.444 | 0.591 | 0.926 | 4.95 | 1.61 | 5.92 | 5.75 | 1.8 | 5.74 | 3.96 | 5.08 | 9.75 | 2.27 | 5.46 | 0.871 | 7.73

Row | Sequence | SH2 binding enrichment (c-Src SH2) | SH2 binding enrichment (SHP2-C SH2) | SH2 binding enrichment (Grb2 SH2) | phosphorylation enrichment (Hck) | phosphorylation enrichment (c-Abl (mouse)) | phosphorylation enrichment (FGFR1) | phosphorylation enrichment (c-Src) | phosphorylation enrichment (Fes) | phosphorylation enrichment (FGFR3) | phosphorylation enrichment (Jak2) | phosphorylation enrichment (Fyn) | phosphorylation enrichment (MERTK) | phosphorylation enrichment (AncSZ) | phosphorylation enrichment (EPHB2) | phosphorylation enrichment (Fer (mouse)) | phosphorylation enrichment (EPHB1)
18 | MGRVNYGAYIN [GLB1_Y485] | 1.22 | 1.19 | 4.77 | 0.395 | 0.587 | 0.383 | 0.393 | 0.617 | 0.499 | 0.54 | 0.463 | 0.315 | 0.701 | 0.486 | 0.34 | 0.504
19 | MKGDFYRSLAE [YWHAG_Y131_Y133S_YF] | 0.352 | 0.551 | 0.758 | 0.49 | 0.585 | 0.422 | 0.441 | 0.73 | 0.52 | 0.811 | 0.404 | 0.37 | 0.697 | 0.437 | 0.467 | 0.334
20 | MKKMHYVDPDR [ST3GAL5_Y99_H104R] | 0.567 | 0.76 | 0.879 | 0.349 | 0.436 | 0.331 | 0.322 | 0.495 | 0.521 | 0.534 | 0.395 | 0.294 | 0.407 | 0.388 | 0.346 | 0.321
21 | MLEVPYVDHNS [F10_Y384_R387H] | 0.407 | 0.547 | 0.707 | 0.618 | 0.817 | 0.516 | 0.506 | 1.42 | 0.786 | 1.24 | 0.416 | 0.424 | 1.2 | 0.51 | 0.583 | 0.594
22 | MPLTEYLKRIK [CNGB3_Y200] | 0.489 | 0.75 | 1.01 | 0.365 | 0.525 | 0.381 | 0.325 | 0.616 | 0.462 | 0.613 | 0.34 | 0.379 | 0.621 | 0.365 | 0.345 | 0.266
23 | MPQNEYIELHR [NSA2_Y6] | 0.601 | 0.767 | 0.808 | 0.743 | 0.497 | 1.95 | 0.66 | 0.767 | 1.03 | 0.7 | 0.444 | 0.338 | 0.9 | 0.673 | 0.325 | 0.696
24 | MQMEEYRGRVE [BTNL2_Y91_W94R] | 0.408 | 0.871 | 0.785 | 0.459 | 0.458 | 0.411 | 0.437 | 0.874 | 0.539 | 0.573 | 0.379 | 0.383 | 0.755 | 0.39 | 0.424 | 0.421
25 | MRALIYNSSTV [PLEKHA7_Y243_A248V] | 0.463 | 0.605 | 0.674 | 0.754 | 0.872 | 0.447 | 0.77 | 0.824 | 0.57 | 0.726 | 0.714 | 0.405 | 0.669 | 0.657 | 0.51 | 0.447
26 | MSRNLYSGDCY [DDR2_Y736_Y740C] | 0.746 | 0.614 | 0.796 | 2.27 | 0.581 | 0.951 | 1.49 | 0.993 | 1.15 | 0.69 | 1.96 | 4.75 | 0.985 | 2.35 | 0.811 | 2.11
27 | MSSHHCDFKKF [ZNF445_Y428_Y428C_YF] | 0.449 | 0.759 | 0.811 | 0.452 | 0.529 | 0.437 | 0.415 | 0.487 | 0.417 | 0.519 | 0.392 | 0.474 | 0.47 | 0.393 | 0.43 | 0.401
28 | MSSHHCDYKKY [ZNF445_Y428_Y428C] | 0.553 | 0.665 | 0.962 | 0.372 | 0.517 | 0.965 | 0.452 | 0.661 | 0.437 | 0.475 | 0.472 | 0.432 | 0.633 | 0.385 | 0.388 | 0.366
29 | MSSLFYANTLF [HOXB7_Y6_YF] | 0.509 | 0.861 | 0.905 | 0.905 | 0.693 | 0.656 | 0.883 | 1.19 | 0.735 | 0.859 | 0.905 | 3.91 | 0.906 | 0.834 | 3.42 | 1.14
30 | MTRDIYETDYY [INSR_Y1185] | 0.744 | 0.6 | 0.716 | 1.39 | 0.712 | 1.89 | 2.42 | 1.13 | 1.93 | 1.02 | 1.63 | 0.746 | 2.66 | 1.34 | 0.831 | 1.39
31 | MWGSDYVHLSR [MAP3K4_Y582_Q584H] | 0.568 | 0.746 | 0.914 | 0.486 | 0.804 | 3.31 | 0.471 | 0.693 | 1.82 | 1.72 | 0.472 | 0.53 | 0.951 | 1.47 | 0.417 | 3.2
32 | NACGLYHKMNG [GATA5_Y216] | 1.95 | 0.945 | 0.81 | 0.533 | 0.525 | 0.581 | 0.523 | 1.03 | 0.567 | 0.798 | 0.371 | 0.624 | 0.795 | 0.447 | 0.673 | 0.508
33 | NAMRRHIEEFQ [MNS1_Y244_Y244H] | 0.435 | 0.636 | 0.676 | 0.366 | 0.628 | 0.348 | 0.347 | 0.741 | 0.497 | 0.672 | 0.367 | 0.469 | 0.634 | 0.411 | 0.346 | 0.398

From the supplement of paper PMC10065799, “High-throughput profiling of sequence recognition by tyrosine kinases and SH2 domains using bacterial peptide display” (eLife, 2023)
